One experiment concerns caspase 3. Briefly: Caspase 3 fluorescent activity assay with aldehyde inhibitor, all cells examined. In kind it is cell-based. The protocol: (§1) Cells were seeded to 50% confluence in six-well plates in media containing 10% fetal calf serum overnight. Following 24 hours after transfection, cells media was changed to contain 1% fetal calf serum with or without 10 ng/ml TGF-β for additional 24 hours. Cells were treated with caspase 3 aldehyde inhibitor (Ac-DEVD-CHO) supplied with caspase 3 fluorescent activity kit according to the manufacturers' protocols (Pharmingen, San-Diego, Calif.). Results were read using FL-600 microplate fluorescence reader (Bio-Tek).

A further experiment relates to M-NRP1 cells. Briefly: Annexin-V apoptosis of GFP-sorted transfected M-NRP1 cells. In kind it is cell-based, rat. As to conditions: M-NRP1 cells transfected with wildtype ARTS, 10 ng/ml TGF-β 24 hours. The protocol:
(§2) Cells were seeded to 50% confluence in six-well plates in DMEM-F12 containing 10% fetal calf serum overnight.
(§3) ARTS whole cDNA in PCMV-sport vector was isolated from a human fetal cDNA library in the pcmv-sport vector (Gibco BRL Life Technologies). This vector is different from AU5 tagged vector.
(§4) The NRP-154 and M-NRP1 cells were cotransfected with a total of 2 μDNA, 1 μg ARTS-pcmv-sport and 1 μg a GFP vector (Clontech, Palo-Alto, Calif.), a marker for transfected cells, using Lipofectamine (Gibco BRL Life Technologies, Gaithersburg, Md.) or FuGENE 6 (Boehringer-Mannheim) according to the manufacturer's protocol.
(§5) After 24 hours, cells media was changed to contain 1% fetal calf serum with or without 10 ng/ml TGF-β for an additional 24 hours.
(§6) GFP-positive cells were sorted using FACS.
(§7) The sorted population was stained with streptavidin-sulforhodamin.
(§8) The number of apoptotic cells was measured using the TACS Annexin-V-biotin (Trevigen, Gaithersburg, Md.).

A further experiment deals with caspase 3 in COS cells. Briefly: Caspase 3 fluorescent activity assay, COS cells. In kind it is cell-based, monkey. As to conditions: overexpression of construct, following treatment with TGF-β. As to the method:
as §1

In experiment [1] the test system is COS cells. Kind of experiment: TUNEL assay of transfected COS cells. In kind it is cell-based, monkey. The settings on record: transfected COS cells, 10 ng/ml TGF-β for 24 hours. As to the method: COS cells were cultured as previously described (Section E, above). […] When these cells are transfected with ARTS and treatment with TGF-β they are induced to cell death.
COS cells were then transfected with control vector or wildtype ARTS, essentially as described above, and treated with 10 ng/ml TGF-β for 24 hours.
The apoptotic response of COS cells to TGF-β was assessed by a TUNEL assay ([…], now Roche, Indianapolis, Ind.) following the manufacturer's instructions.
COS cells were cultured and transfected, as described above, with equal concentrations of either pcDNA3 control vector, ARTS or M-ARTS-pcDNA3 using the Lipofectamine transfection reagent (Gibco BRL Life Technologies, Gaithersburg, Md.). The cells were treated with 1 o ng/ml TGF-β for 24 hours.
Apoptosis was examined in a TUNEL assay (Boehringer-Mannheim), according to the manufacturer's instructions.

In experiment [2] the test system is caspase 3 in NRP-154 cells. Briefly: Caspase 3 fluorescent activity assay, NRP-154 cells. In kind it is cell-based, rat. As to conditions: 10 ng/ml TGF-β 24 hours. The protocol: as §1
Experiment [3] deals with 3TP-Lux promoter construct in FaO rat hepatoma cells. Kind of experiment: p3TP-Lux reporter luciferase assay with ARTS cotransfection, FaO cells. In kind it is cell-based. The settings on record: 10 ng/ml TGF-β 24 hours. The protocol: (§9) NRP-154 and FaO cells were seeded to 50% confluence in six-well plates in DMEM-F12 or DMEM, respectively, containing 10% fetal calf serum overnight.
(§10) Antisense- and sense-ARTS were generated by PCR using ARTS cDNA containing the 5′UTR of ARTS as a template. The PCR fragments were subcloned into the Bam H1-Eco R1 sites of pcDNA3 vector containing the Pcmv promotor (invitrogen, Carlsbad, Calif.).
(§11) NRP-154 cells and FaO cells were transfected with lug/sample p3TP-Lux reporter (a gift from Dr. Joan Massague), which contains 3 repeats of an AP-1 site from the collagenase promoter linked to a short region of the PAI-1 promoter along with equal concentrations of either pcDNA3 control vector (PGL2 vector commercially available from Promega, Madison, Wis.) or the ARTS-pcDNA3 construct, described above.
(§12) The cells were then treated with 10 ng/ml TGF-β for 24 hours.
(§13) After 24 hours, a cell lysate was prepared essentially as described in Part C, above.
(§14) Luciferase activity was determined in the cell lysate using an assay kit (BD Pharmingen, San Diego, Calif.), and a MLX Microtiter plate luminometer (Dynex Technologies, Chantilly, Va.). […]
(§15) Experiments were repeated three times with similar results. The results are expressed as the mean (±SEM) of duplicate luciferase assay, corrected for transfection efficiency.

Experiment [4] deals with NRP-154 cells. Kind of experiment: Annexin-V apoptosis of GFP-sorted transfected NRP-154 cells. In kind it is cell-based, rat. As to conditions: NRP-154 cells overexpressing ARTS. The protocol:
as §2, §3, §4, §5, §6, §7, §8

The subject of another experiment is caspase 3 in A549 cells. Kind of experiment: Caspase 3 fluorescent activity assay, A549 cells. In kind it is cell-based, human. As to conditions: overexpression of ARTS, following TGF-β treatment. The protocol: as §1
The subject of experiment [5] is COS cells. Kind of experiment: Apoptosis (nuclear fragmentation, immunofluorescence) of COS cells transfected with ARTS constructs. In kind it is cell-based, monkey. The protocol:
A C-terminal deletion construct lacking the last 24 amino acids of the ARTS protein was constructed and its apoptotic activity in COS cells was examined. […] Thus, the truncated construct is both more rapid in translocating to the nucleus and in inducing apoptosis in response to TGF-β.
COS cells were cultured as desribed previously (Section E, above) and cotransfected with either empty empty AU5 vector (based on pcDNA3 vectors provided by Dr. Silvio Gukind) or ARTS-AU5 with X-vector. ARTS-AU5 was prepared as desribed above. X-vector is a general term to describe any other vector which was cotransfected together with ARTS to asses its effect on ARTS activity.
24 hours after transfection, cell media was changed to contain 1% fetal calf serum with or without 10 ng/ml TGF-β and the cells were incubated for another 24 hours. The cells were then washed twice with PBS and fixed with 4% paraformaldehyde in PBS. Cells were blocked with 5% BSA in PBS for 30 minutes, then incubated with anti-AU5 fluroescein antibodies (Babco, Richmond, Calif.). The cells were also counterstained with DAPI for counting of fragmented nuclei.

The subject of experiment [6] is 3TP-Lux promoter construct in NRP-154 cells. Kind of experiment: p3TP-Lux reporter luciferase assay with ARTS cotransfection, NRP-154 cells. The settings on record: 10 ng/ml TGF-β 24 hours. In kind it is cell-based, rat. The protocol:
as §9, §10, §11, §12, §13, §14, §15

The subject of experiment [7] is COS cells. Kind of experiment: Immunofluorescence localization / nuclear translocation of ARTS constructs in COS cells. The settings on record: in response to treatment with TGF-β. In kind it is cell-based, monkey. As to the method: (§16) NRP-154 and COS cells were cultured and transfected as described above, and transfected with an ARTS-AU5 tagged construct, essentially as described in Part D, above. The cells were then treated with 10 ng/ml TGF-β.
(§17) An immunofluorescence assay was performed essentially as described in Part G2, above using anti-AU5 antibodies (commercially available Babco, Richmond, Calif.). Anti-AU5 FITC-conjugated secondary antibodies (Pierce) were used to detect transfected ARTS.

The test system of experiment [8] is NRP-154 cells. Briefly: Immunofluorescence localization / nuclear translocation of ARTS constructs in NRP-154 cells. In kind it is cell-based, rat. The settings on record: following TGF-β treatment. The protocol: as §16, §17

Turning to Ac-DEVD-CHO, in the experiment with caspase 3, the “TGF-β induced caspase activity” value is given as “inbitited the TGF-β induced caspase activity”.

B1: ARTS: Apoptosis Related protein in the TGF-β Signaling pathway; 274 amino acid human septin, SEQ. ID. NO: 2, expressed by transfection (protein, listed as Homo sapiens)
chain: MIKRFLEDTTDDGELSKFVKDFSGNASCHPPEAKTWASRPQVPEPRPQAPDLYDDDLEFRPPSRPQSSDNQQYFCAPAPLSPSARPRSPWGKLDPYDSSEDDKEYVGFATLPNQVHRKSVKKGFDFTLMVAGESGLGKSTLVNSLFLTDLYRDRKLLGAEERIMQTVEITKHAVDIEEKGVRLRLTIVDTPGFGDAVNNTECWKPVAEYIDQQFEQYFRDESGLNRKNIQDNRVHCCLYFISPFGHGYGPSLRLLAPPGAVKGTGQEHQGQGCH
notes: Apoptosis Related protein in the TGF-β Signaling pathway; ID; NO: 2, expressed by transfection
As to B1, in the experiment with M-NRP1 cells, the “sensitivity to TGF-β induced apoptosis” value is given as “restored, in part, the sensitivity”. Further, the “activation of caspase 3” value in the experiment on caspase 3 in COS cells is listed as “marked increase in the activation of caspase 3”. The “TUNEL staining / competence to undergo apoptosis” value in the experiment on COS cells [1] is recorded as “strong TUNEL staining”. Besides, the “caspase 3 activity” value is given as “no further effect” in [2] and “marked increase in caspase 3 activity” in the experiment with caspase 3 in A549 cells. For the same molecule, the “basal and TGF-β-induced luciferase activity (3TP-Lux)” value in [3] and in experiment [6] was “increased” throughout. Besides, the “effect on TGF-β induced apoptosis” value with NRP-154 cells [4] is given as “lack of effect”. The “percent transfected apoptotic cells” value in the experiment with COS cells [5] (COS cells, within 1 hour of TGF-β treatment) is on record as 18%. The “induction of apoptosis by overexpression alone” value in the experiment with COS cells [5] (COS cells, without TGF-β) is listed as “does not induce apoptosis”. The “induction of apoptosis in transfected cells” value in the experiment with COS cells [5] (cells treated with TGF-β) is “increased basal level and TGF-β-induced level of apoptosis”.

B2: ARTS-AU5: AU5 tagged construct containing the entire ARTS coding sequence in pCEF-AU5 vector (protein)
chain: MIKRFLEDTTDDGELSKFVKDFSGNASCHPPEAKTWASRPQVPEPRPQAPDLYDDDLEFRPPSRPQSSDNQQYFCAPAPLSPSARPRSPWGKLDPYDSSEDDKEYVGFATLPNQVHRKSVKKGFDFTLMVAGESGLGKSTLVNSLFLTDLYRDRKLLGAEERIMQTVEITKHAVDIEEKGVRLRLTIVDTPGFGDAVNNTECWKPVAEYIDQQFEQYFRDESGLNRKNIQDNRVHCCLYFISPFGHGYGPSLRLLAPPGAVKGTGQEHQGQGCH
modifications: left off: small tags and cut ends
In the case of B2, the “translocation to / localization in the nucleus” value in the experiment on COS cells [7] is listed as “translocates to from the mitochondria to the nucleus”. The “translocation to the nucleus” value in the experiment on NRP-154 cells [8] is “translocates to from the mitochondria to the nucleus”.
